Test [1] has as its target GAL4 DNA-binding domain-fused Bombyx mori Ago3 (pDBD-Ago3) (Bombyx mori) (UniProt A9ZSZ2). Kind of test: two-hybrid; insect two-hybrid (I2H) in BmN4 cells: GAL4 DBD bait, p65 AD prey, 4xUAS-TATA-Luc reporter, luciferase at 72 h post-transfection, relative to the pUC18 control prey; also in BmN4-SID1 cells 72 h after dsRNA against HP1a, HP1b, Ago3, Siwi, putative piRNA-related genes or GFP (control).

For test [2], the target named is GAL4 DNA-binding domain-fused Bombyx mori Siwi (pDBD-Siwi) (Bombyx mori) (UniProt A8D8P8). Described as above.
Sequence of UniProt A8D8P8 (A8D8P8 whole entry, the tested form may be a part): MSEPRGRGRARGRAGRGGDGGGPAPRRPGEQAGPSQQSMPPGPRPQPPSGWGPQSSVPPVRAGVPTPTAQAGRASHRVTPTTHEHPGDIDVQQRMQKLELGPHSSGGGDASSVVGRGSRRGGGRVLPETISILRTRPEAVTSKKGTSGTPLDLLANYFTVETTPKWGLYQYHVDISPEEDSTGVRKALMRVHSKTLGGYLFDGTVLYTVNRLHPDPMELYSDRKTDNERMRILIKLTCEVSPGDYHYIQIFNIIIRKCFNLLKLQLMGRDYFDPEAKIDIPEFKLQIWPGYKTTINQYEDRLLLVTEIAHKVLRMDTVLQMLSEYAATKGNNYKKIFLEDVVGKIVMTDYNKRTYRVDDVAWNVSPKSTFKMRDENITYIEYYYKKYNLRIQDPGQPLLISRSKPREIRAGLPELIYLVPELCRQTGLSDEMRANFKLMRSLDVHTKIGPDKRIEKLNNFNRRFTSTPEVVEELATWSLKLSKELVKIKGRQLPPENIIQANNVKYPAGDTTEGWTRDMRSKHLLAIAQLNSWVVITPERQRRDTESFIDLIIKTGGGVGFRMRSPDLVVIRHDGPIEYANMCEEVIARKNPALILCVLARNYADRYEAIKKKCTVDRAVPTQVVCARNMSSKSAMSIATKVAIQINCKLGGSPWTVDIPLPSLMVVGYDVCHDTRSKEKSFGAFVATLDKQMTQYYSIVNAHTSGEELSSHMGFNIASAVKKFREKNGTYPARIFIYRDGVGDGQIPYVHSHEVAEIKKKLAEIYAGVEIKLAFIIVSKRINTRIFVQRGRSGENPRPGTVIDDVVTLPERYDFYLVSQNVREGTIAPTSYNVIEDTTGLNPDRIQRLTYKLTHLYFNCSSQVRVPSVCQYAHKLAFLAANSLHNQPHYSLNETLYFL

Sequence of UniProt A9ZSZ2 (A9ZSZ2 whole entry, the tested form may be a part): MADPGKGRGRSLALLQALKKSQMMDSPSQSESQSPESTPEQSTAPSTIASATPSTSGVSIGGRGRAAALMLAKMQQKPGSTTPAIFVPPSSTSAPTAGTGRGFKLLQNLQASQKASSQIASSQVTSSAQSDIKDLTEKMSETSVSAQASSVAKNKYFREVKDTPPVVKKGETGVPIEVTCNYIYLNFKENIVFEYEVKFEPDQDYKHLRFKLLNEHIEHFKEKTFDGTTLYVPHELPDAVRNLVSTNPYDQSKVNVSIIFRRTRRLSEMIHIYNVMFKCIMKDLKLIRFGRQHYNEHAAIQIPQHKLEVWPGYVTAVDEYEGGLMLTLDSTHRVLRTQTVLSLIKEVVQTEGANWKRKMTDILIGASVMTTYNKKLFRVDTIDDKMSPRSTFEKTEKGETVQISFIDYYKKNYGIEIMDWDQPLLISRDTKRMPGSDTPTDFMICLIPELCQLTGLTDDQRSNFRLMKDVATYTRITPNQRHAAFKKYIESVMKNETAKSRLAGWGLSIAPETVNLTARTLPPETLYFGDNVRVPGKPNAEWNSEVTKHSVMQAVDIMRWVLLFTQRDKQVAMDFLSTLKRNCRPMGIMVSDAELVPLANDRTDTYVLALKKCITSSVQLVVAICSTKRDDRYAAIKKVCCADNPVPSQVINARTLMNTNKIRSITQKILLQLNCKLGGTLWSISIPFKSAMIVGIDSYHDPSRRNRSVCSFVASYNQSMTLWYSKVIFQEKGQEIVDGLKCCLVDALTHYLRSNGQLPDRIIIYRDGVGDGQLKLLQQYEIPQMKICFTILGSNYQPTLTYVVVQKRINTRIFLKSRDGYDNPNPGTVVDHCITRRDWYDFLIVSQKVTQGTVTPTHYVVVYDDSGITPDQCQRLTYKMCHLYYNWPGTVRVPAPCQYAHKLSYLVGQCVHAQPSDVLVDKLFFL

For “p65 activation domain-fused Bombyx mori HP1a (pAD-HP1a) (natural protein)”, the fold increase of reporter activity over the pUC18 control in test [1] and in test [2] was above 10 fold in each case.

The values are drawn from paper PMC3956929.
